Patent publication US8357518B2, “Thermostable enzymes for the hydrolysis of mannan-containing polysaccharides” (The Board of Trustees of the University of Illinois, priority 2010, dated 2013)

Legend:
[1] = substrate: O=[N+]([O-])c1ccc(O[C@@H]2O[C@H](CO)[C@@H](O)[C@H](O)[C@@H]2O)cc1; assay: Catalytic efficiency with pNP-linked sugars (Man5A-TM2); type: biochemical, Caldanaerobius polysaccharolyticus; conditions: other: Man5A-TM2, pNP substrates, citrate buffer 50 mM, pH 5.5, 65° C., triplicate
Method: (§1) The plasmid constructs were then introduced into E. coli BL-21 CodonPlus (DE3) RIL competent cells by heat shock, and grown overnight in lysogeny broth (LB) agar medium supplemented with ampicillin (100 μg/mL) and chloramphenicol (50 μg/mL) at 37° C. After 12 h, single colonies were selected and used to inoculate fresh LB (10 mL) supplemented with the antibiotics above at the same concentrations, followed by culturing with aeration for 8 h at 37° C. The pre-cultures were then inoculated into fresh LB (1 L) supplemented with ampicillin and chloramphenicol and the cultures were incubated at 37° C. with vigorous aeration (225 rpm/min). […] Aliquots of eluted fractions were analyzed by sodium dodecyl sulfate-polyacrylamide gel electrophoresis (SDS-PAGE) and protein bands were visualized by staining with Coomassie brilliant blue G-250. […] The UV absorbances of the protein solutions were recorded at 280 nm using a Nanoprop 1000 from Thermo Scientific (Waltham, Mass.) and the protein concentrations were calculated using the following extinction coefficients: Man5A-TM1, ε280 nm=189 mM^−1 cm^−1; Man5A-TM2, ε280 nm=113 mM^−1 cm^−1; Man5B, ε280 nm=103 mM^−1 cm^−1.
(§2) Hydrolysis of para-nitrophenyl (pNP) linked sugars. […] The extinction coefficient of pNP at pH 5.5 was determined as 1636 M^−1 cm^−1.

[2] = substrate: O=[N+]([O-])c1ccc(O[C@@H]2O[C@H](CO)[C@@H](O[C@@H]3O[C@H](CO)[C@@H](O)[C@H](O)[C@H]3O)[C@H](O)[C@H]2O)cc1; assay: as above; type: biochemical, Caldanaerobius polysaccharolyticus; conditions: other: Man5A-TM2, pNP substrates, citrate buffer 50 mM, pH 5.5, 65° C., triplicate
Method: as §1, §2

B1: Caldanaerobius polysaccharolyticus endo-β-mannanase Man5A truncation mutant Man5A-TM2, SEQ ID NO: 29 (Caldanaerobius polysaccharolyticus) (protein)
chain: AGTSGDGRFHVVGNKIVDPDGKDFIIKGVNIQGYRSWEKRSVLQDVHLIADVWKFNTVRLNCFIGQNNWGEGTGANNDIDAIIKAFTAKKVVVEIDLHDTTGYPPLSNPPPAPGQPSLDQAIAWFKELAAKYKDNPYVWFNTMNEPGSSTAPLDPQWKVANEEIIKAIRSTGADNIIVVDGWSYANEGIEQNTPTVDEKRSAVLTYGQDLLNADSAKNTIFAFHNYNEGDIQKKVEDYIDRANAKGLYVFMEEYGKDYSDAAKEGVKSGLQAVMNKGAGRIYWNWDGYDLYDLTSGTGRGSGWEINKTDGSKPTNLSWVGDKIWDDNHGITPTFDDQNPKVDLALERLIANNNGFKAGDKVQFTTFLRNSGDLPIGKDSKVVVKFYVDGVQLGDPVEISGGIAVGQRIPVTSPELTVSKTDFTVKAVIDSSSTYADGAEDAVIENNWIEAAFNSTAPSSGYELVVTGIKITPDTVKEGDYVQAQVTVANQGPEATPVTNIIGWFYVNGYYYTLDDAAKSCAEQDNVTLKPGESITLSTKVKYRAAAPFNFSFVLENLYADDQNQSNNSITVNVPVK
[1]
  kcat/Km: (1.1 ± 0.2) × 10^−2 mM^−1 s^−1
[2]
  kcat/Km: (2.5 ± 0.3) × 10^−2 mM^−1 s^−1
